In article PMC8343073:

Experiments:
[1] = test system: DdbA (Chlamydia trachomatis L2); test: BLI; conditions: BLI (Octet QKe, Ni-NTA sensors, His-protein immobilized): 0.1 M phosphate, 0.15 M NaCl, pH 7.2; nucleic acid 720, 240, 80 nM; temperature not stated
[2] = test system: HctA (Chlamydia trachomatis L2); test: BLI; conditions: BLI (Octet QKe, Ni-NTA sensors, His-protein immobilized): 0.1 M phosphate, 0.15 M NaCl, pH 7.2; nucleic acid 720, 240, 80 nM; temperature not stated

## dsDNA oligo 60% GC
[1]
  Kd: 7.3 nM
[2]
  Kd: 2.3 nM
